{"source": "patent US20030028002A1", "about": "“Cyclin D binding factor, and uses thereof” (published 2003)", "molecules": {"B1": {"name": "cyclin D3 (other, mouse, UniProt P30282 1-292, looked up)", "chain": "MELLCCEGTRHAPRAGPDPRLLGDQRVLQSLLRLEERYVPRASYFQCVQKEIKPHMRKMLAYWMLEVCEEQRCEEDVFPLAMNYLDRYLSCVPTRKAQLQLLGTVCLLLASKLRETTPLTIEKLCIYTDQAVAPWQLREWEVLVLGKLKWDLAAVIAHDFLALILHRLSLPSDRQALVKKHAQTFLALCATDYTFAMYPPSMIATGSIGAAVLGLGACSMSADELTELLAGITGTEVDCLRACQEQIEAALRESLREAAQTAPSPVPKAPRGSSSQGPSQTSTPTDVTAIHL"}, "B2": {"name": "cyclin D2 (other, mouse, UniProt P30280 1-289, looked up)", "chain": "MELLCCEVDPVRRAVPDRNLLEDRVLQNLLTIEERYLPQCSYFKCVQKDIQPYMRRMVATWMLEVCEEQKCEEEVFPLAMNYLDRFLAGVPTPKTHLQLLGAVCMFLASKLKETIPLTAEKLCIYTDNSVKPQELLEWELVVLGKLKWNLAAVTPHDFIEHILRKLPQQKEKLSLIRKHAQTFIALCATDFKFAMYPPSMIATGSVGAAICGLQQDDEVNTLTCDALTELLAKITHTDVDCLKACQEQIEALLLNSLQQFRQEQHNAGSKSVEDPDQATTPTDVRDVDL"}, "B3": {"name": "DMP1 (cyclin D-binding myb-like protein), murine, full length (protein)", "chain": "MSTVEEDSDTVTVETVNSVTFTQDTDGNLILHCPQNDPDEVDSEDSTEPPHKRLCLSSEDDQSIDDATPCISVVALPLSENDQSFEVTMTATTEVADDELSEGTVTQIQILQNDQLDEISPLGTEEVSAVSQAWFTTKEDKDSLTNKGHKWKQGMWSKEEIDILMNNIERYLKARGIKDATEIIFEMSKDERKDFYRTIAWGLNRPLFAVYRRVLRMYDDRNHVGKYTPEEIEKLKELRIKHGNDWATIGAALGRSASSVKDRCRLMKDTCNTGKWTEEEEKRLAEVVHELTSTEPGDIVTQGVSWAAVAERVGTRSEKQCRSKWLNYLNWKQSGGTEWTKEDEINLILRIAELDVADENDINWDLLAEGWSSVRSPQWLRSKWWTIKRQIANHKDVSFPVLIKGLKQLHENQKNNPVLLENKSGSGVPNSNCNSSVQHVQIRVARLEDNTAISPSPMAALQIPVQITHVSSTDSPAASADSETITLNSGTLQTFEILPSFPLQPTGTPGTYLLQTSSSQGLPLTLTTNPTLTLAAAAPASPEQIIVHALSPEHLLNTSDNVTVQCHTPRVIIQTVATEDITSSLSQEELTVDSDLHSSDFPEPPDALEADTFPDEIPRPKMTIQPSFNNAHVSKFSDQNSTELMNSVMVRTEEEIADTDLKQEEPPSDLASAYVTEDLESPTIVHQVHQTIDDETILIVPSPHGFIQASDVIDTESVLPLTTLTDPIFQHHQEASNIIGSSLGSPVSEDSKDVEDLVNCH", "modifications": "multiple phosphorylated forms when made in Sf9 cells (sites not given)"}, "B4": {"name": "cyclin D1 (other, mouse, UniProt P25322 1-295, looked up)", "chain": "MEHQLLCCEVETIRRAYPDTNLLNDRVLRAMLKTEETCAPSVSYFKCVQKEIVPSMRKIVATWMLEVCEEQKCEEEVFPLAMNYLDRFLSLEPLKKSRLQLLGATCMFVASKMKETIPLTAEKLCIYTDNSIRPEELLQMELLLVNKLKWNLAAMTPHDFIEHFLSKMPEADENKQTIRKHAQTFVALCATDVKFISNPPSMVAAGSVVAAMQGLNLGSPNNFLSCYRTTHFLSRVIKCDPDCLRACQEQIEALLESSLRQAQQNVDPKATEEEGEVEEEAGLACTPTDVRDVDI"}}, "key": {"cyclin D2 [1]": {"target": "B2", "experiment": "GST pull-down of 35S-labelled in vitro translated cyclin on glutathione-Sepharose, gel autoradiography", "method": "(§1) Because DMP1 interacted with cyclin D2 in yeast, the ability of a glutathione S-transferase (GST)-DMP1 fusion protein to bind D-type cyclins in vitro is examined. GST is fused to residues 176-761 of DMP1 (in lieu of GAL4 in the original cDNA clone), and the bacterially synthesized recombinant protein is incubated with [³⁵S]methionine-labeled D-type cyclins prepared by transcription and translation in vitro. As a positive control, GST-RB which can specifically bind D-type cyclins in this assay is used (15). Bound cyclins recovered on washed glutathione-Sepharose beads are analyzed by electrophoresis on denaturing gels. […] GST-DMP1 is less efficient than GST-RB in binding cyclins D2 and D3 (˜4-fold less binding), and under these conditions, an interaction with D1 is not detected (lanes 3, 7, 11). No labeled proteins bind to GST alone (lanes 4, 8, 12), and neither cyclin A nor cyclin E bind to GST-RB or to GST-DMP1. A cyclin D2 mutant disrupted in an amino-terminal Leu-X-Cys-X-Glu pentapeptide that is required for high efficiency GST-RB binding is not detectably compromised in its interaction with GST-DMP1 (negative data not shown); in agreement, DMP1 bears no homology to RB or to RB-related family members (p107 and p130)."}, "cyclin D3 [2]": {"target": "B1", "experiment": "GST pull-down of 35S-labelled in vitro translated cyclin on glutathione-Sepharose, gel autoradiography", "method": "as §1"}, "[3]": {"target": "T1, DMP1 M11 (K319E) K319E (Mus musculus) (UniProt Q8CE22)", "T1 sequence": "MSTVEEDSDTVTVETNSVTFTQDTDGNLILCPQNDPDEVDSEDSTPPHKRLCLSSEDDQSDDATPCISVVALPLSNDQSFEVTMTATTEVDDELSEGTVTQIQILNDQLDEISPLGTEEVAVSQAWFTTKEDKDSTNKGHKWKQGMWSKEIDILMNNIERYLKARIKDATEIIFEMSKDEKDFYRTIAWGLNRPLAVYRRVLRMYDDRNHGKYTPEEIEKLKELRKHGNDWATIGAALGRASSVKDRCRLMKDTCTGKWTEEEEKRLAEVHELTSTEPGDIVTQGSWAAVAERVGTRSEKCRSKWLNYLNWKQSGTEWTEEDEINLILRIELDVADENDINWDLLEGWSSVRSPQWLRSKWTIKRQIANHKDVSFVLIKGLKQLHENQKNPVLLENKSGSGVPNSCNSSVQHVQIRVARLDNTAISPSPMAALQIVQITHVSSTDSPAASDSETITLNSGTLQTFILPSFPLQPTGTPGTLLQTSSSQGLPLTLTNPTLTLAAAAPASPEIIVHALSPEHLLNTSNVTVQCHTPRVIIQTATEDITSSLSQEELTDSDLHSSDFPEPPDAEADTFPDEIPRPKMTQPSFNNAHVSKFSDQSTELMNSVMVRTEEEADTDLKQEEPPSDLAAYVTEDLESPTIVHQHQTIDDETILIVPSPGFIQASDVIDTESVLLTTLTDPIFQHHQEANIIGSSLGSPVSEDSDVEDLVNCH", "experiment": "EMSA", "details": "very faint band"}, "[4]": {"target": "T2, DMP1 M11 (K319E) expressed in NIH-3T3 cells K319E (Mus musculus) (UniProt Q8CE22)", "T2 sequence": "T1 sequence", "experiment": "cell_activity", "details": "BS2 luciferase reporter"}, "[5]": {"target": "T3, DMP1 expressed in 293T cells (Mus musculus) (UniProt Q8CE22)", "T3 sequence": "T1 sequence with E320K", "experiment": "cell_activity"}, "[6]": {"target": "T4, DMP1 expressed in NIH-3T3 cells (Mus musculus) (UniProt Q8CE22)", "T4 sequence": "T1 sequence with E320K", "experiment": "cell_activity", "details": "BS2 luciferase reporter"}, "cyclin D2 [7]": {"target": "B2", "experiment": "coinfected Sf9 cells, coprecipitation"}, "cyclin D3 [8]": {"target": "B1", "experiment": "coinfected Sf9 cells, coprecipitation"}, "[9]": {"target": "T5, DMP1 (cyclin D-binding myb-like protein), murine, full length (mouse, UniProt Q8CE22 1-761, multiple phosphorylated forms when made in Sf9 cells (sites not given))", "T5 sequence": "B3 chain", "experiment": "cell-based or functional assay"}, "D-type cyclins": {"target": "D-type cyclins", "experiment": "coexpression in Sf9 cells, coprecipitation (FIG. 3)"}}, "note": "Substitutions are numbered along the chain they refer to."}
{"molecule": "GST-RB fusion protein (from UniProt P08515 1-218)", "values": [{"measurement": "percent of the total input protein bound", "setting": "cyclin D2 [1]", "result": 20, "unit": "%"}, {"measurement": "percent of the total input protein bound", "setting": "cyclin D3 [2]", "result": 20, "unit": "%"}]}
{"molecule": "AATTGACCCGTATGTAGGTACGC (double strand) [BS2]", "values": [{"measurement": "binding signal (% of wild type)", "setting": "[3]", "result": 2}, {"measurement": "activity (fold activation)", "setting": "[4]", "result": 1.1}, {"measurement": "activity (fold activation)", "setting": "[5]; 8x BS2 luciferase reporter", "result": 20}, {"measurement": "activity (fold activation)", "setting": "[6]", "result": 8.4}]}
{"molecule": "AATTGACCCGGATGTAGGTACGC (double strand) [BS1]", "values": [{"measurement": "activity (fold activation)", "setting": "[5]; 6x BS1 luciferase reporter", "result": 7}]}
{"molecule": "RB (retinoblastoma protein) coexpressed in Sf9 cells", "values": [{"measurement": "binding ratio of cyclin to RB", "setting": "cyclin D2 [7]", "result": "1 ratio (1:1)"}, {"measurement": "binding ratio of cyclin to RB", "setting": "cyclin D3 [8]", "result": "1 ratio (1:1)"}]}
{"molecule": "B1", "values": [{"measurement": "Luciferase Activity (DMP1 transactivation of a DMP1-responsive reporter; DMP1 alone 8.4, no DMP1 1.0)", "setting": "[9]", "result": "1.6 relative to empty expression vector = 1.0"}]}
{"molecule": "B2", "values": [{"measurement": "Luciferase Activity (DMP1 transactivation of a DMP1-responsive reporter; DMP1 alone 8.4, no DMP1 1.0)", "setting": "[9]", "result": "1.6 relative to empty expression vector = 1.0"}]}
{"molecule": "B3", "values": [{"measurement": "percent of DMP1 molecules in stable complexes with D-type cyclins", "setting": "D-type cyclins", "result": "< 15", "unit": "%"}]}
{"molecule": "B4", "values": [{"measurement": "Luciferase Activity (DMP1 transactivation of a DMP1-responsive reporter; DMP1 alone 8.4, no DMP1 1.0)", "setting": "[9]", "result": "1.5 relative to empty expression vector = 1.0"}]}
